This assay deals with PDZ domain of SNX27 (residues 40 to 135) (human, UniProt Q96L92 40-135). Nature of the assay: ITC; MicroCal iTC200, 25 °C; ACE2-PBM peptide (125 µM, 5% DMSO) in the syringe, PDZ protein (100 µM, 5% DMSO) in the cell; 20 mM Tris pH 8.0, 150 mM NaCl. The note with it: both partners purified. Background: Isothermal titration calorimetry measures the heat released or taken up as one component is titrated into another.

No end group written: not given here.

B1: ACE2-PBM peptide (-DDVQTSF-COO−) (peptide)
peptide: DDVQTSF-OH
notes: also called human ACE2-PBM; source: synthetic peptide (Beijing SciLight Biotechnology Ltd. Co.)
By Kd is commonly meant a measure of binding affinity in units of concentration. B1 registered a Kd of 20 µM.

Source of the values: PMC8794821, “SNX27 suppresses SARS-CoV-2 infection by inhibiting viral lysosome/late endosome entry” (Proceedings of the National Academy of Sciences of the …, 2022).
